Source: IntAct's records for PubMed 9697699

B1: Serine hydrolase RBBP9 (Rattus norvegicus (Rat)), O88350 (parent)
chain: MASPTKAVIVPGNGGGDVATHGWYGWVRKGLEQIPGFQCLAKNMPDPITARESIWLPFMETELHCDEKTIIIGHSSGAIAAMRYAETHQVYALILVSAYTSDLGDENERASGYFSRPWQWEKIKANCPHIIQFGSTDDPFLPWKEQQEVADRLDAKLYKFTDRGHFQNTEFHELIRVVKSMLTPAL
partner: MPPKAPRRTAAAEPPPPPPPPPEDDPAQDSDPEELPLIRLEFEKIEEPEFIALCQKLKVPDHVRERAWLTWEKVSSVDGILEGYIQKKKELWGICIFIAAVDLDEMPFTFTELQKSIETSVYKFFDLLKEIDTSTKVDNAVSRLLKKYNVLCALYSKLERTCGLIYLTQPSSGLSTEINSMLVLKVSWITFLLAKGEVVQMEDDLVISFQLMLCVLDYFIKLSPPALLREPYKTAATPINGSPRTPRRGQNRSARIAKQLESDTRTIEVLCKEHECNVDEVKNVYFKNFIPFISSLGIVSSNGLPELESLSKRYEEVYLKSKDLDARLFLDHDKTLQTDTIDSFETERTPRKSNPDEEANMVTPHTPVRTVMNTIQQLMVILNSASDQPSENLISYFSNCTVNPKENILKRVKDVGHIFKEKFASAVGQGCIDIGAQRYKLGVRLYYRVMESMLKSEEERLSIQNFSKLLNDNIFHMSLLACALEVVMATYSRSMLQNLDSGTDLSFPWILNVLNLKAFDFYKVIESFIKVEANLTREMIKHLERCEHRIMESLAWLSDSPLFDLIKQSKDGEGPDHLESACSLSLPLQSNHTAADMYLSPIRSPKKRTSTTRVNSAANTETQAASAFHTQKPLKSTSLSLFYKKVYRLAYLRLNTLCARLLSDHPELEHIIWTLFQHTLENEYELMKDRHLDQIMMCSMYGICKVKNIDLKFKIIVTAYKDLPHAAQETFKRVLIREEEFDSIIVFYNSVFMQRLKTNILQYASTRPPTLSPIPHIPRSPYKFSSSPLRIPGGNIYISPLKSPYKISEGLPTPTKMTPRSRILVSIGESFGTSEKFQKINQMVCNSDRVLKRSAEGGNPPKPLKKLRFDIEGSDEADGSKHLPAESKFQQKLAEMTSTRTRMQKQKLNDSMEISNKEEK

Variants of: B1
Conditions: with rb_rat Rb1, P33568
With L63E the “effect of a mutation on the interaction” value was “disrupting interaction”.
